Molecular target: T1, receptor tyrosine kinase-like orphan receptor 1 (ROR1) expressed on EW36 cells (human, UniProt Q01973 30-937)
T1 construct: whole, on cells; Endogenous ROR1 on viable EW36 human B-cell lymphoma cells; also called RORI
Experiment: flow cytometry on EW36 cells, culture supernatant, Alexa-488 goat anti-human IgG
Protocol: Dual parameter flow cytometry was done in a FACSCalibur instrument (BD Biosciences; Immunocytometry Systems) using an anti-human 1gG that reacted with cell bound scFV of the invention (as shown in SEQ.ID.No: 3), but not the cells used in these experiments.
Propidium iodide was added to stain dead cells, which could then be excluded from the analysis. Following incubation with the culture supernatants, the cells were washed prior to analysis using a FACSCalibu™ (Becton Dickinson, Mountain View, Calif.). The data analyzed with FlowJo™ software (Tree Star, San Carlos, Calif.). A total of 20,000-gated events were collected for each sample in a list mode file, and data analysis was done using CellQuest™ software (BD Biosciences). The relative log florescence of the cells is depicted on the x-axis. Cells staining with the Alexa-488 conjugated goat antibody are shifted to the right. A histogram of control unstained cells or cells stained with the Alexa-488 conjugated goat antibody in the absence of the scFV are provided for comparison.

T1 sequence (Q01973 30-937): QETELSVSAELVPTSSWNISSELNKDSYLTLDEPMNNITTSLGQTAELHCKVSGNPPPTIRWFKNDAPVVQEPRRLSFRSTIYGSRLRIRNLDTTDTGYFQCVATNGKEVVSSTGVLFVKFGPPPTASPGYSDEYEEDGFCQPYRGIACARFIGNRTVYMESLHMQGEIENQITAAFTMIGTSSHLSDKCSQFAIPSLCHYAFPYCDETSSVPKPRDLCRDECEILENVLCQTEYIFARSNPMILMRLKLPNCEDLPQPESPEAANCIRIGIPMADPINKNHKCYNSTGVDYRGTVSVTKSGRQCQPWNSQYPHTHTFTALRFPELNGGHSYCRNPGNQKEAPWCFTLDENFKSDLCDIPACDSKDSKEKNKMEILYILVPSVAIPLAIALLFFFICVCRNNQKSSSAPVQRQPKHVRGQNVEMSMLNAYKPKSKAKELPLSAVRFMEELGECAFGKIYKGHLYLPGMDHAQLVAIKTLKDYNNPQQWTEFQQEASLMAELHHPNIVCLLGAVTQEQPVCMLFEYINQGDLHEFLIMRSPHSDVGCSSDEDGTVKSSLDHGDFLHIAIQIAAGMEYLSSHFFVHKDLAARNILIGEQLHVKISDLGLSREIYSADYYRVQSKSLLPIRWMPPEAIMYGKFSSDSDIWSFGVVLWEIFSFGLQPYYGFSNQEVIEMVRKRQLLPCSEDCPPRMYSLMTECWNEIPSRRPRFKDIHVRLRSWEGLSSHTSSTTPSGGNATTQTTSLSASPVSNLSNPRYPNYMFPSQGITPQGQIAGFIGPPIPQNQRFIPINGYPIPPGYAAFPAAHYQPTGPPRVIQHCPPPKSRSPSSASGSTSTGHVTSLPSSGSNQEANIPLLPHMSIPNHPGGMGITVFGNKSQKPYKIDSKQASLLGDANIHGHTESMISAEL

B1: pCDNA 3.1 CH2 CH3 stable scFV (anti-ROR1 mAb scFv fused to CH2 CH3) (Fc fusion)
scFv: DIKMTQSPSSMYASLGERVTITCKASPDINSYLSWFQQKPGKSPKTLIYRANRLVDGVPSRFSGGGSGQDYSLTINSLEYEDMGIYYCLQYDEFPYTFGGGTKLEMKGSTSGSGKPGSGEGSTKGEVKLVESGGGLVKPGGSLKLSCAASGFTFSSYAMSWVRQIPEKRLEWVASISRGGTTYYPDSVKGRFTISRDNVRNILYLQMSSLRSEDTAMYYCGRYDYDGYYAMDYWGQGTSVTVSS
notes: Tested as culture supernatants of stably transfected cell clones; All clones carry the same construct, so they are written as one molecule; also called scFV of the invention; not shown: CH2 CH3 domains (detected with anti-human IgG)
B1: binds.
